{
  "source": "patent US20230220080A1",
  "target": "B lymphoma cell lines Raji or Daudi (CD20 and CD22)",
  "assay": "FACS on Raji cells, Alexa Fluor 488 anti-human IgG1, MFI; binder is a 1:1 mixture",
  "data": [
    {"substance": "Epratuzumab/ Ofatumumab (1:1)", "values": [
      {"measurement": "EC50", "value": 3.25, "unit": "nM"}
    ]}
  ]
}
